Assay [1] deals with T1, FcRL6, overexpressed on 3T3 cells (UniProt Q6DN72 20-434, limits assumed).
T1 construct: whole, on cells
T1 sequence (looked up): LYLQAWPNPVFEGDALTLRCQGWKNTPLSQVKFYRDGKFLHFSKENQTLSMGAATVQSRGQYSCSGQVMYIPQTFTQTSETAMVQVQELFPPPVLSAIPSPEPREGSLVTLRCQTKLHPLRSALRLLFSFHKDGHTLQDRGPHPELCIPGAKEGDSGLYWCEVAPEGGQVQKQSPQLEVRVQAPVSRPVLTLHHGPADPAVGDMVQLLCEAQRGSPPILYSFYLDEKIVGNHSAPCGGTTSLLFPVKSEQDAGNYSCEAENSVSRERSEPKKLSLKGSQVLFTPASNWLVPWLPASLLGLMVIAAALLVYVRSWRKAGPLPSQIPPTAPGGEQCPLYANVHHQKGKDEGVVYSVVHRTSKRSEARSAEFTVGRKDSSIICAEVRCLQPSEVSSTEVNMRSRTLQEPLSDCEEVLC
In words: phage clone on 3T3-FcRL6 cells.

In assay [2] the target is T2, FcRL2, overexpressed on 3T3 cells (UniProt Q96LA5 20-508, limits assumed).
T2 construct: whole, on cells
T2 sequence (looked up): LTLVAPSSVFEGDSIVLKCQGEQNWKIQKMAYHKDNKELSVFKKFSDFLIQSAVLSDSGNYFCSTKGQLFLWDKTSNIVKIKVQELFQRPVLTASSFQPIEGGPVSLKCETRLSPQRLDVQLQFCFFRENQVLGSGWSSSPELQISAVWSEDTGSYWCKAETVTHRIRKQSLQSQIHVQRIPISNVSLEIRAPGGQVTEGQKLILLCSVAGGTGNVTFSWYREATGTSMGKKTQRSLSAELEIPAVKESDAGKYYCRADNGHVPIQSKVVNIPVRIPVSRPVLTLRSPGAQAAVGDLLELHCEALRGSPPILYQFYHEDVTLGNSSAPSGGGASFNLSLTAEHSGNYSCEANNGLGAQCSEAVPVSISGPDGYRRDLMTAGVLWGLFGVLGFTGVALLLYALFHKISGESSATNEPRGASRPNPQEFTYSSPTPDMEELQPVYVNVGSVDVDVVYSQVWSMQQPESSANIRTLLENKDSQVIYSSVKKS
The experiment in a line: phage clone on 3T3-FcRL2 cells.

In assay [3] the target is T3, Fc Receptor-like 5 (FcRL5), full length, overexpressed on 3T3 or Raji cells (human, UniProt Q96RD9 16-977).
T3 construct: also called 3T3-FcRL5
T3 sequence: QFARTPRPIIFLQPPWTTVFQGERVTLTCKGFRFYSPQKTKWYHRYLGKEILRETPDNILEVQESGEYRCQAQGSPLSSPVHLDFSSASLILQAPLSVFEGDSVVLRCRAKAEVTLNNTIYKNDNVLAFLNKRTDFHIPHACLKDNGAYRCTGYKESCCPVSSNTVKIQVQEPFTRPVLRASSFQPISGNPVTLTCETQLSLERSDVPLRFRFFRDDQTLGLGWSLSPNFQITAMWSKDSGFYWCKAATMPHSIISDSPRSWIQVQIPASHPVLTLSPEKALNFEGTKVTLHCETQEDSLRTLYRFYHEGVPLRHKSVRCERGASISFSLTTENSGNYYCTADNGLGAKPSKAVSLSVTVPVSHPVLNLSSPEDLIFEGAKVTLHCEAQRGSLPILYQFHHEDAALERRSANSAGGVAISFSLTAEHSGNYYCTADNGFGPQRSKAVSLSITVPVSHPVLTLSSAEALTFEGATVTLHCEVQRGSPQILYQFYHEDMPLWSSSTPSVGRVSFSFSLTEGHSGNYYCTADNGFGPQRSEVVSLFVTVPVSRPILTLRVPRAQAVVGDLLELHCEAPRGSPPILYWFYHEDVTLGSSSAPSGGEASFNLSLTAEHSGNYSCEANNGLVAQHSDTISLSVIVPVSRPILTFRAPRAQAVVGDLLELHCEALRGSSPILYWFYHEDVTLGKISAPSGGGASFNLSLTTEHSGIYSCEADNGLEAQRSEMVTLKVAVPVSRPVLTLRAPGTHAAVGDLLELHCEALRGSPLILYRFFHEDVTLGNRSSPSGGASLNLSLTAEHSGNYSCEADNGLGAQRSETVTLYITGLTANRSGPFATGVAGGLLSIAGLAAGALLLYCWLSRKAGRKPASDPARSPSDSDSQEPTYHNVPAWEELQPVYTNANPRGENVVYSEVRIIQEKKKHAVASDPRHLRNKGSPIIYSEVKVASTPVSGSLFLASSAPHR
The experiment in a line: phage clone screening on cells. The essentials:
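Cell-surface binding was read by flow cytometry using anti-M13 coat protein mAb and PE-labelled anti-mouse Ig. Selected scFv phage were screened on FcRL5-overexpressing 3T3 cells, with 3T3 lines bearing FcRL1, 2, 3, 4 or 6 as negative controls.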

The target in the next assay is SLAMF9 protein (UniProt Q96A28 19-236, limits assumed). In words: phage clone on SLAMF9 protein.
Assay [4] has as its target T4, FcRL3, overexpressed on 3T3 cells (UniProt Q96P31 18-734, limits assumed).
T4 construct: whole, on cells
T4 sequence (looked up): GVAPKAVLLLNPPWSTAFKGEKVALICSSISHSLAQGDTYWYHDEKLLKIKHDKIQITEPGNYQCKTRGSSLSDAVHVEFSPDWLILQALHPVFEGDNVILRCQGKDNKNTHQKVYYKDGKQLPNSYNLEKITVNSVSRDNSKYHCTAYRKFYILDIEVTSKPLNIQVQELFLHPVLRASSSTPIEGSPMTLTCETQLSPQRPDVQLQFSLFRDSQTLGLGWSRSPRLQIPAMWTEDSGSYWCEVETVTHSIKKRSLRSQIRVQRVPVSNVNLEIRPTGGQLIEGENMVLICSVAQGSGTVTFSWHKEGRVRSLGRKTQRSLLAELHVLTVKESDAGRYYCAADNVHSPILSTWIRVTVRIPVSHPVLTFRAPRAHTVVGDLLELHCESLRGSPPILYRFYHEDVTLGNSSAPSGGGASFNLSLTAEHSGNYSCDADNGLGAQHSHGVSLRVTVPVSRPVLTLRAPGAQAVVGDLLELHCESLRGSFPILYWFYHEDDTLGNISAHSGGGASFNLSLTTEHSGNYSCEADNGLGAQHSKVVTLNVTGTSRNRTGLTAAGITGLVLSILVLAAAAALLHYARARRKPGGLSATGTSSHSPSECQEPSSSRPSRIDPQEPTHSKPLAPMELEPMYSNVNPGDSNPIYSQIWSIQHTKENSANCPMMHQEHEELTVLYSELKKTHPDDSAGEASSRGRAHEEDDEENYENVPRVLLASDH
In words: phage clone on 3T3-FcRL3 cells.

The record followed here is US20210388081A1 (Memorial Sloan Kettering, published 2021).

SLAMF9 protein, sequence (Q96A28 19-236 limits assumed): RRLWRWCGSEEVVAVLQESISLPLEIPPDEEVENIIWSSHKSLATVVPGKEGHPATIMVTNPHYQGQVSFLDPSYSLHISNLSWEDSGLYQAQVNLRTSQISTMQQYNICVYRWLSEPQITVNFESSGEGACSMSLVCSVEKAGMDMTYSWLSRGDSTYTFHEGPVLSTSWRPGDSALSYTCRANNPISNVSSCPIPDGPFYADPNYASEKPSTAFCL

B1: ET200-108 (scFv)
scFv: QSVLTQPPSVSAPPGQKVTISCSGSSSNIGNNYVSWYQQFPGTAPKLLIYDNNKRPSGISDRFSGSKSGTSATLGIAGLQTGDEADYYCGTWDTSLSGFYVFGSGTKVTVLGSRGGGGSGGGGSGGGGSLEMAEVQLVQSGAEVKKPGASVKVSCKASGYTFTSYTISWVRQAPGQGLEWMGWISTYNGLTNYAQNLQGRVTMTTDTFTTTAYMELRSLRSDDTAVYYCVREGSPDYGDFASFDYWGQGTLVTVSSTSGQAGQHHHHHHGAYPYDVPDYAS
notes: screened as phage clone; entry is VL-linker-VH-His tag-HA tag
As for B1, the binding result in assay [1] was “no binding”; in assay [2], “no binding”; in assay [3], “binds”; with SLAMF9 protein, “no binding”; in assay [4], “no binding”.

B2: ET200-106 (scFv)
scFv: SYELTQPPAASGTPGQRVTISCSGGVSNIGSGALNWYQQLPGTAPKLLIYSYNQRPSGVSDRFSGSRSATSASLAISGLQSEDEADYYCATWDDSVNGWVFGGGTKLTVLGSRGGGGSGGGGSGGGGSLEMAEVQLVESGAEVKKPGDSVKVSCKPSGYNFLNYGINWVRQAPGQGLEWMGWISTYTGNTNYAQKLQGRVTFTTDTSTSTAYMEMRSLRSDDTAVYYCARQQGGGWYDVWGQGTLVTVSSTSGQAGQHHHHHHGAYPYDVPDYAS
notes: as for B1
B2: the binding result in assay [1] is recorded as “no binding”; in assay [2], “no binding”; in assay [3] it was “binds”; with SLAMF9 protein it was “no binding”; in assay [4], “no binding”.

B3: ET200-101 (scFv)
scFv: QAVLTQPPSASGAPGQRVTVSCSGSNSNIGSNYVNWYQQFPGTAPKLLMYSSSQRPSGVPDRFSGSKSGTSASLAISGLHSEDEADYYCATWDDSLNAWVFGGGTKLTVLGSRGGGGSGGGGSGGGGSLEMAEVQLVQSGAEVRKPGASVKVSCKTSGYTFTWYAIHWVRQAPGQRLEWMGWINAGSGNTKYSQKFQGRVTLTRDTSASTAYMELSSLRSDDTAVYYCARPNNYGSGGDVFDIWGQGTMVTVSSTSGQAGQHHHHHHGAYPYDVPDYAS
notes: as for B1
B3: the binding result is given as “no binding” in assay [1]; “no binding” in assay [2]; “binds” in assay [3]; “no binding” in the assay with SLAMF9 protein; “no binding” in assay [4].

B4: ET200-105 (scFv)
scFv: SYVLTQPPSVSVSPGQTASITCSGDRLTNKYVSWYQQKPGQSPVLVIYEDAKRPSGIPARFSGSNSGNTATLTISGTQAMDESEYYCQAWDSSVVVFGGGTKLTVLGSRGGGGSGGGGSGGGGSLEMAEVQLVESGGGLVQPGRSLRLSCAASGFTFDDYAMHWVRQAPGKGLEWVSGISWNSGSIGYADSVKGRFTISRDNAKNSLYLQMNSLRDEDTALYYCAKDRGGGVIVKDAFDIWGQGTMVTVSSTSGQAGQHHHHHHGAYPYDVPDYAS
notes: as for B1
As for B4, the binding result in assay [1] is listed as “no binding”; in assay [2], “no binding”; in assay [3] it was “binds”; in the assay with SLAMF9 protein, “no binding”; in assay [4] it was “no binding”.

B5: ET200-102 (scFv)
scFv: QSVVTQPPSVSAAPGQKVTISCSGSSSNIGNNYVSWYQQLPGTAPKLLIYDNNKRPSGIPDRFSGSKSGTSATLGITGLQTGDEADYYCGTWDSSLSAYVFGTGTKVTVLGSRGGGGSGGGGSGGGGSLEMAQVQLVQSGAEVKKPGASVKVSCKASGYTFTNYALHWVRQAPGQGLEWMAWINGGNGNTKYSQNFQGRVTITRDTSASTAYMELSSLRSEDTAVYYCAKPEETAGTIHFDYWGQGTPVTVSSTSGQAGQHHHHHHGAYPYDVPDYAS
notes: as for B1
B5: the binding result is “no binding” in assay [1]; “no binding” in assay [2]; “binds” in assay [3]; “no binding” with SLAMF9 protein; “no binding” in assay [4].

B6: ET200-103 (scFv)
scFv: QAVLTQPHSVSESPGKTVTISCTRSSGSIASNYVQWYQQRPGSAPTTVIYEDNQRPSGVPDRFSGSIDSSSNSASLTISGLKTEDEADYYCQSYDSTITVFGGGTKLTVLGSRGGGGSGGGGSGGGGSLEMAQVQLVQSGAEVKKPGSSVKVSCKASGGTFSSYAISWVRQAPGQGLEWMGGIIPIFGTANYAQKFQGRVTITADESTSTAYMELSSLRSEDTAVYYCAGEGYYDSSGYSNGDAFDIWGQGTMVTVSSTSGQAGQHHHHHHGAYPYDVPDYAS
notes: as for B1
As to B6, the binding result is “no binding” in assay [1]; “no binding” in assay [2]; “binds” in assay [3]; “no binding” in the assay with SLAMF9 protein; “no binding” in assay [4].

B7: ET200-107 (scFv)
scFv: QSVVTQPPSVSAAPGEKVTISCSGSNFNVGNNDVSWYQQLPGAAPKLLIYDNNKRPSGIPDRFSGSKSGTSATLDITGLHSDDEADYYCGTWDSSLNTGGVFGTGTKVTVLGSRGGGGSGGGGSGGGGSLEMAEVQLVQSGAEVKKPGASVKVSCKASGYTFTSYTISWVRQAPGQGLEWMGWISTYNGLTNYAQNLQGRVTMTTDTFTTTAYMELRSLRSDDTAVYYCVREGSPDYGDFASFDYWGQGTLVTVSSTSGQAGQHHHHHHGAYPYDVPDYAS
notes: as for B1
On to B7, for which the binding result is on record as “no binding” in assay [1]; “no binding” in assay [2]; “binds” in assay [3]; “no binding” in the assay with SLAMF9 protein; “no binding” in assay [4].
